Test results published in paper PMC3422339, “Interactions and CCAAT-Binding of Arabidopsis thaliana NF-Y Subunits”.

Molecular target: mouse NF-YA minimal domain;mouse NF-YB HFD;mouse NF-YC HFD (mouse;mouse;mouse, UniProt P23708-2;P63139;P70353 233-303;49-141;27-120, ||)
Assay: agarose EMSA; positive control; 32P EMSA: 20 mM Hepes pH 7.9, 50 mM NaCl, 5% glycerol, 5 mM MgCl2, 5 mM b-ME, 20 C; Cy5 agarose EMSA: 20 nM DNA, 20 mM Tris pH 7.5, 50 mM NaCl, 0.5 mM EDTA, 5 mM MgCl2, 2.5 mM DTT, 0.1 mg/ml BSA, 5% glycerol, 23 C
Details: protein: recombinant;recombinant;recombinant; tags: C-terminal His cleaved by thrombin;6His in dimer; untagged in purified trimer;; copies: 1;1;1; label: 5'-Cy5; blunt

Sequence of mouse NF-YA minimal domain;mouse NF-YB HFD;mouse NF-YC HFD (P23708 261-331, chain 1 of 3): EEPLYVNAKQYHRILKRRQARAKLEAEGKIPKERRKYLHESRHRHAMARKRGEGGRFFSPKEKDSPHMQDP
Sequence of mouse NF-YA minimal domain;mouse NF-YB HFD;mouse NF-YC HFD (P63139 49-141, chain 2 of 3): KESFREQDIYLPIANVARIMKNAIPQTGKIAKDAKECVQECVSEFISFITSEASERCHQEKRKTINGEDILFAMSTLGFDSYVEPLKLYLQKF
Sequence of mouse NF-YA minimal domain;mouse NF-YB HFD;mouse NF-YC HFD (P70353 27-120, chain 3 of 3): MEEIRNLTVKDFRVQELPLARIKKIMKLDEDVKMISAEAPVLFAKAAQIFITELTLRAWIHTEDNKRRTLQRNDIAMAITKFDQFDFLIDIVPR

B1: HSP70 CCAAT 31 bp probe (dsDNA)
DNA 1: CTTCTGAGCCAATCACCGAGCTCGATGAGGC
DNA 2: GCCTCATCGAGCTCGGTGATTGGCTCAGAAG
B1: binds.
